# Test results from US9988424 (DUKE UNIVERSITY, dated 2018).
# T1: gp70 C.1086 V1/V2 (HIV-1 V1V2 on murine leukemia virus gp70)
# T1 construct: also called C.gp70 1086C V1V2; C.1086gp70V1V2
# T1 chain: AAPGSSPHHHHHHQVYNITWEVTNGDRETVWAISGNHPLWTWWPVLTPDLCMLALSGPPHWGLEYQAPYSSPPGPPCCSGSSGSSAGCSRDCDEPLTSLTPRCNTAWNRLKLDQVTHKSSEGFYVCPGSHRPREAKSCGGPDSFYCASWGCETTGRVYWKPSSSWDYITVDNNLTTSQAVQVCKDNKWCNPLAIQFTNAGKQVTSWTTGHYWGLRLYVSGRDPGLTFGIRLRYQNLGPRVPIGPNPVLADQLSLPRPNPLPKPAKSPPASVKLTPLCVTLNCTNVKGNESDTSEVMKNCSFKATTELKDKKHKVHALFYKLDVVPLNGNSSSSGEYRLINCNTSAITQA
# T2: SIV CPZ US-1 gp140CF (SIVcpz)
# T2 construct: also called US-1 SIVCPZ gp140CF
# T2 chain: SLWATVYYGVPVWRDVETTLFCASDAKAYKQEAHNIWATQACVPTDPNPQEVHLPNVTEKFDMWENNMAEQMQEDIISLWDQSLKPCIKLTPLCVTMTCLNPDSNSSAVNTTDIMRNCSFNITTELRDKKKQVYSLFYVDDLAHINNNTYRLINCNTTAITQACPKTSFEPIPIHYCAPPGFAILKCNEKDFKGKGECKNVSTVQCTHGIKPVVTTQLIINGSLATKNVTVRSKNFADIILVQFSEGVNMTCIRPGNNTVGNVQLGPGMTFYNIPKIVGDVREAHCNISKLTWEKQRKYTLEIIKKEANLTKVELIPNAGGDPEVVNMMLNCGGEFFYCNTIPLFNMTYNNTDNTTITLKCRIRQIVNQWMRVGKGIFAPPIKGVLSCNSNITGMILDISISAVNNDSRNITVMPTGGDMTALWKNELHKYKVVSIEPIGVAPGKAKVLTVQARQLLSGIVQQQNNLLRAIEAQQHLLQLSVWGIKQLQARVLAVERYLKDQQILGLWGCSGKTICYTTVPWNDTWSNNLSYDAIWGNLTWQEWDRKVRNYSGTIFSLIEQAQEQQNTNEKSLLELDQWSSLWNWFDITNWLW
# T3: D.9009SA V1V2 Tags
# T3 Env construct: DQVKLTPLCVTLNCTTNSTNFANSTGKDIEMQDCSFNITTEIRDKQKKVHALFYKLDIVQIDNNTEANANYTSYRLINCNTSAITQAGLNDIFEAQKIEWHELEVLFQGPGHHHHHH
# B1: CH59 (antibody, V domains shown)
# VH: EVQLVESGGGLVQPGRSLRLSCAASGFTFDDGAMHWVRQAPGKGLEWVSGISWNSNIIAYADSVKGRFTISRDNAKNSLYLEMNSLRVEDTALYYCAKDSPRGELPLNYWGQGTLVTVSS
# VL: SYELTQPPSVSVSPGQTARITCSGDALPKNYAYWYQQKSGQAPVLVIYEDSKRPSGIPERFSGSSSGTMATLTISGAQVEDEADYYCYSTDSSGNHRVFGGGTKLTVL
# notes: also called mAb CH59
# B2: PG16 reverted unmutated ancestor antibody (antibody, V domains shown)
# VH: QVQLVESGGGVVQPGRSLRLSCAASGFTFSSYGMHWVRQAPGKGLEWVAVISYDGSNKYYADSVKGRFTISRDNSKNTLYLQMNSLRAEDTAVYYCAREAGGPIWHDDVKYYDFNDGYYYYYYMDVWGKGTTVTVSS
# VL: QSALTQPASVSGSPGQSITISCTGTSSDVGSYNLVSWYQQHPGKAPKLMIYEVSKRPSGVSNRFSGSKSGNTASLTISGLQAEDEADYYCCSLTDRSHRIFGGGTKLTVL
# notes: also called PG16 RUA; PG16_RUA
# B3: 697D (antibody, V domains shown)
# VH: QVQLVQSGAEVKKPGSSVKVSCKASGGNFNTYTISWVRQAPGQGLEWMGRIIPIFGIVNPAQKFPGRVTINVDKSTNTAYMELSSLRSEDTAVYYCATSGVGLHFGYFDYWGQGTQVTVSS
# VL: QSVLTQPPSVSGAPGQRVTISCTGSSSNIGAHYDVHWYQQLPGTAPKLLIYGNSNRPSGVPDRFSGSKSGTSASLAITGLQAEDEADYYCQSYDSSLSGYVFGTGTKVTVL
# notes: also called mAb 697D; V2 conformational mAb 697D
# What was measured:
# B. 684-6 gp140C = assay: ELISA, OD405
# B.040 gp140C = assay: ELISA, OD405
# B.62357 140C = biological target: T4, B.62357 140C; assay: ELISA, OD405
# T4 construct: also called B.62357 gp140C
# Env of SHIV SF162P3 = Env of SHIV SF162P3 (SHIV); assay: cell-based or functional assay
# Env of SHIV-SF162P4 = Env of SHIV-SF162P4 (SHIV); assay: cell-based or functional assay
# Env of SHIV-BaL = Env of SHIV-BaL (SHIV); assay: cell-based or functional assay
# Env of SHIV-1157ipEL-p = Env of SHIV-1157ipEL-p (SHIV); assay: cell-based or functional assay
# Env of SHIV-1157ipd3N4 = Env of SHIV-1157ipd3N4 (SHIV); assay: cell-based or functional assay
# AE.con gp140CF = assay: ELISA, OD405 at 10 ug/ml
# B.62357 gp140C = biological target: T5, B.62357 gp140C; assay: ELISA, OD405 at 10 ug/ml
# T5 construct: also called B.62357 140C
# B.63521_V1/V2 tags = assay: ELISA, OD405 at 10 ug/ml
# B.Case A2 V1/V2 tags = assay: ELISA, OD405 at 10 ug/ml
# B.con gp140CF = assay: ELISA, OD405 at 10 ug/ml
# C.1086 gp140 = biological target: T6, C.1086 gp140; assay: ELISA, OD405 at 10 ug/ml
# T6 construct: also called C.1086gp140C
# Con 6 gp120 = assay: ELISA, OD405 at 10 ug/ml
# D.9009SA V1/V2 tags = assay: ELISA, OD405 at 10 ug/ml
# AE.A244 V1V2 Tags = AE.A244 V1V2 Tags (HIV-1); assay: ELISA, OD405 at 10 ug/ml
# AE.A244 gp120 delta 11 = biological target: T7, AE.A244 gp120 delta 11 (HIV-1); assay: ELISA, OD405 at 10 ug/ml
# T7 construct: also called E.A244gp120Δ11; AE.A244 Δ11 gp120
# C.1086 V1V2 Tags = C.1086 V1V2 Tags (HIV-1); assay: ELISA, OD405 at 10 ug/ml
# gp70 C.1086 V1/V2 = biological target: T1, gp70 C.1086 V1/V2; assay: ELISA, OD405 at 10 ug/ml
# A.Q23 V1V2 tags = A.Q23 V1V2 tags (HIV-1); assay: ELISA, OD405 at 10 ug/ml
# AE.97CNG2XF gp140CF = biological target: T8, AE.97CNG2XF gp140CF (HIV-1); assay: ELISA, OD405 at 10 ug/ml
# T8 construct: also called E.97CNGX2F gp140CF
# B.HXB/BAL gp140CFI = biological target: T9, B.HXB/BAL gp140CFI (HIV-1, UniProt P04578 33-680); assay: ELISA, OD405 at 10 ug/ml
# T9 construct: also called B.HxB/Ba gp140 CFI
# B.9021 gp140C = B.9021 gp140C (HIV-1); assay: ELISA, OD405 at 10 ug/ml
# SIV CPZ US-1 gp140CF = biological target: T2, SIV CPZ US-1 gp140CF; assay: ELISA, OD405 at 10 ug/ml
# D.9009SA V1V2 Tags = biological target: T3, D.9009SA V1V2 Tags; assay: ELISA, OD405
binder,measurement,setting,value
B1,binding result,B. 684-6 gp140C,no binding (tested: 10 ug/ml)
same,binding result,B.040 gp140C,no binding (tested: 10 ug/ml)
same,binding result,B.62357 140C,no binding (tested: 10 ug/ml)
same,"EC50, neutralization of SHIV B.SF162P3 (tier 2)",Env of SHIV SF162P3,> 50 µg/mL
same,"EC50, neutralization of SHIV B.SF162P4 (tier 2)",Env of SHIV-SF162P4,> 50 µg/mL
same,"EC50, neutralization of SHIV B.BaL (tier 2)",Env of SHIV-BaL,> 50 µg/mL
same,"EC50, neutralization of SHIV C.1157ipEL-p (tier 1A)",Env of SHIV-1157ipEL-p,24.6 µg/mL
same,"EC50, neutralization of SHIVC.1157ipd3N4 (tier 2)",Env of SHIV-1157ipd3N4,> 50 µg/mL
B2,binding result,AE.con gp140CF,no binding (tested: 10 ug/ml)
same,binding result,B.62357 gp140C,no binding (tested: 10 ug/ml)
same,binding result,B.63521_V1/V2 tags,no binding (tested: 10 ug/ml)
same,binding result,B.Case A2 V1/V2 tags,no binding (tested: 10 ug/ml)
same,binding result,B.con gp140CF,no binding (tested: 10 ug/ml)
same,binding result,C.1086 gp140,no binding (tested: 10 ug/ml)
same,binding result,Con 6 gp120,no binding (tested: 10 ug/ml)
same,binding result,D.9009SA V1/V2 tags,no binding (tested: 10 ug/ml)
same,binding result,AE.A244 V1V2 Tags,no binding (tested: 10 ug/ml)
same,binding result,AE.A244 gp120 delta 11,no binding (tested: 10 ug/ml)
same,binding result,C.1086 V1V2 Tags,no binding (tested: 10 ug/ml)
same,binding result,gp70 C.1086 V1/V2,no binding (tested: 10 ug/ml)
same,binding result,A.Q23 V1V2 tags,no binding (tested: 10 ug/ml)
same,binding result,AE.97CNG2XF gp140CF,no binding (tested: 10 ug/ml)
same,binding result,B.HXB/BAL gp140CFI,no binding (tested: 10 ug/ml)
same,binding result,B.9021 gp140C,no binding (tested: 10 ug/ml)
same,binding result,SIV CPZ US-1 gp140CF,no binding (tested: 10 ug/ml)
B3,binding result,D.9009SA V1V2 Tags,no binding (tested: 10 ug/ml)
